± gives the standard deviation of the averaged measurements.
Test system: ATP
Assay: switch fluorescence ratio, 500 uM ATP over buffer (Cy3 cluster intensity, sum of 5 cycles each) (fold (ratio)); higher = stronger signal-on switching upon ATP binding; sequences stand for … in TCGTCGGCAGCGTCAGATGTGTATAAGAGACAGTTTTTTTTTTTTTTTTTTTTTTTTT…TC
Settings: aptamer strand: ATP DNA aptamer (quencher-CACCTGGGGGAGTATTGCGGAGGAAGG + anchor), 100 nM annealed; ATP concentration: 500 uM
Summary of the method: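 The fluorescence ratio divides summed target-cycle Cy3 intensity by summed buffer-cycle Cy3 intensity for each cluster and is averaged per switch-domain sequence. Cy3-labelled switching-strand clusters on a modified Illumina MiSeq flow-cell were annealed to 100 nM quencher-labelled ATP aptamer, then imaged in selection buffer and again after 15 min with 500 uM ATP at 22 °C. Five such cycles were run, with NaOH stripping and re-annealing between them, and clusters outside 100-1000 RFU were excluded.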
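Further: ATP exposure 15 min at 22 °C before imaging.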

| Sequence | switch fluorescence ratio |
| --- | --- |
| GCGGTTGTGC | 0.935 ± 0.051 |
| TGAGGCAGAG | 1.06 ± 0.015 |
| TTTGGGATGT | 1.02 ± 0.073 |
| AATGGTTGAC | 0.988 ± 0.017 |
| AATATTATGG | 1 ± 0.016 |
| ATGCACGTAT | 1.03 ± 0.048 |
| TACATGCATG | 1.001 ± 0.0031 |
| AAGGGGGTTG | 0.975 ± 0.044 |
| ACCCGAAGGC | 1.08 ± 0.043 |
| AGGTAATTAG | 1 ± 0.012 |
| ACCGGGGGGT | 1.37 ± 0.22 |
| ATCGAGGTCC | 1.01 ± 0.074 |
| TTTAAATAAC | 1.02 ± 0.029 |
| AAAGCCTTGG | 0.973 ± 0.021 |
| CAATATATAC | 1.13 ± 0.043 |
| TAACTTTCTT | 0.987 ± 0.025 |
| GCGGGTTGGC | 1.08 ± 0.011 |
| GGTTTGTTGT | 0.972 ± 0.022 |
| CTAAACGTCA | 1.1 ± 0.051 |
| GGGTTTAGTA | 0.998 ± 0.02 |
| CTAATTTAGT | 1.01 ± 0.014 |
| TTAAGTGAC | 1.06 ± 0.028 |
| CTAACTAAGG | 1.015 ± 0.0095 |
| TTCCAGTCC | 1.06 ± 0.027 |
| TAGATGGGTC | 1.01 ± 0.013 |

| Sequence | switch fluorescence ratio |
| --- | --- |
| AATGTGGGTG | 1.03 ± 0.045 |
| TGGTTGAACC | 1.03 ± 0.024 |
| GATCATTTGT | 0.9797 ± 0.0018 |
| GGGAGTACGT | 1 ± 0.019 |
| ATTATTGGCA | 0.999 ± 0.0024 |
| ATGCATCGGG | 0.9974 ± 0.0049 |
| CGTGATGAGG | 0.989 ± 0.028 |
| CACAAACAGA | 1.12 ± 0.036 |
| TCTTACAGTA | 1.09 ± 0.04 |
| TTTTTCCCGG | 1.17 ± 0.23 |
| TAAGGTAACG | 1.05 ± 0.12 |
| AGCAGATAGG | 1.03 ± 0.079 |
| TAAGTGGGTT | 0.992 ± 0.034 |
| GGTGTGGGGA | 0.994 ± 0.025 |
| CGCTTAAGTT | 1.004 ± 0.0013 |
| GATGTATTAT | 1.008 ± 0.0043 |
| GATTTAAGTG | 1.018 ± 0.0065 |
| AGTTAGTTTG | 0.961 ± 0.022 |
| AGTACGGTAA | 1.13 ± 0.025 |
| GTTTGGATAT | 0.963 ± 0.01 |
| AAGAATCAGA | 0.98 ± 0.015 |
| GCTTCCGGGG | 1.27 ± 0.06 |
| ATTCCCGGTC | 1.01 ± 0.066 |
| CACGGGGTCG | 1.036 ± 0.0027 |
| CCCGTGCCTA | 1.03 ± 0.064 |

| Sequence | switch fluorescence ratio |
| --- | --- |
| TTCTCTATTT | 0.983 ± 0.028 |
| GACCATACGC | 1.42 ± 0.055 |
| TATGGGGGTA | 1.01 ± 0.029 |
| TTTTAAGGGA | 0.998 ± 0.014 |
| GTCTAAGGAA | 0.993 ± 0.016 |
| GATTCTAGGG | 0.9918 ± 0.0017 |
| GGGGCATAGG | 0.9777 ± 0.0015 |
| ATCATTAGGG | 0.976 ± 0.032 |
| CGGGGTGCGG | 1 ± 0.056 |
| AGAGATTCAC | 1.03 ± 0.013 |
| GCAAGATGAT | 1.17 ± 0.17 |
| AATGTGTTG | 0.984 ± 0.041 |
| AAAAATGTCA | 0.979 ± 0.045 |
| GATGTAAAGG | 0.9891 ± 0.006 |
| AACTGGTCGC | 1.14 ± 0.07 |
| CCATGTGTAG | 1 ± 0.017 |
| CGGGGTGGCT | 0.977 ± 0.16 |
| TATTCTAATT | 1.004 ± 0.006 |
| GGGCATGAAT | 0.965 ± 0.016 |
| TGGACGGGGC | 1.034 ± 0.0099 |
| GTTATATAAG | 0.984 ± 0.011 |
| TTCGGGGGGG | 1.01 ± 0.043 |
| GCGAAGGGGT | 1.02 ± 0.031 |
| TTACCATTAG | 0.965 ± 0.011 |
| GGCCTTTTAA | 1.04 ± 0.029 |

| Sequence | switch fluorescence ratio |
| --- | --- |
| TTAAGGGACC | 1.022 ± 0.0089 |
| CTTAGTTGGT | 0.965 ± 0.012 |
| GATGTAACAA | 0.998 ± 0.035 |
| TAAGGTAAGG | 1.01 ± 0.031 |
| TATTTGAGA | 1.01 ± 0.019 |
| CTCCAATAGT | 1.79 ± 0.044 |
| GGGAAATCGG | 0.986 ± 0.014 |
| TTCGCGATGT | 1.13 ± 0.11 |
| GCTTTCTCGG | 1.08 ± 0.048 |
| GGGCTTAAGG | 0.97 ± 0.015 |
| CTAATATTAG | 1 ± 0.086 |
| GGTGTTAGAG | 0.985 ± 0.0036 |
| TTATTTTTT | 1.02 ± 0.018 |
| AGAAGGGGGC | 0.989 ± 0.062 |
| GTTGTTTCAG | 0.969 ± 0.022 |
| ACGGCATAAT | 1.11 ± 0.013 |
| TTGGGTAGCC | 1.03 ± 0.032 |
| AGATTTTTTT | 0.996 ± 0.031 |
| TTGTGTGGTG | 0.98 ± 0.011 |
| CAGGGAGCTT | 1.01 ± 0.03 |
| AGATTGGTTG | 0.985 ± 0.012 |
| CATTGCGAGG | 1.02 ± 0.039 |
| CACGTACTCC | 1.5 ± 0.097 |
| CTTGACTTTT | 1.015 ± 0.0014 |
| CCCGTATATC | 2.72 ± 0.44 |
